# Molecular target: CBLB (UniProt Q3TTA7)
# Assay: anti-CBLB IP, dectin-1 blot
# Settings: reference: wild-type Flag-dectin-1; sites Y15
substance,measurement,value
dectin-1 (from UniProt Q6QLQ4) Flag-dectin-1 Y15F,binding against the reference,lost

# — paper PMC4975523
